According to PMC6101483, “Investigating mycobacterial topoisomerase I mechanism from the analysis of metal and DNA substrate interactions at the active site”:

Target: T1, MtbTOP1-704t (Mycobacterium tuberculosis, UniProt P9WG49 2-704)
T1 sequence: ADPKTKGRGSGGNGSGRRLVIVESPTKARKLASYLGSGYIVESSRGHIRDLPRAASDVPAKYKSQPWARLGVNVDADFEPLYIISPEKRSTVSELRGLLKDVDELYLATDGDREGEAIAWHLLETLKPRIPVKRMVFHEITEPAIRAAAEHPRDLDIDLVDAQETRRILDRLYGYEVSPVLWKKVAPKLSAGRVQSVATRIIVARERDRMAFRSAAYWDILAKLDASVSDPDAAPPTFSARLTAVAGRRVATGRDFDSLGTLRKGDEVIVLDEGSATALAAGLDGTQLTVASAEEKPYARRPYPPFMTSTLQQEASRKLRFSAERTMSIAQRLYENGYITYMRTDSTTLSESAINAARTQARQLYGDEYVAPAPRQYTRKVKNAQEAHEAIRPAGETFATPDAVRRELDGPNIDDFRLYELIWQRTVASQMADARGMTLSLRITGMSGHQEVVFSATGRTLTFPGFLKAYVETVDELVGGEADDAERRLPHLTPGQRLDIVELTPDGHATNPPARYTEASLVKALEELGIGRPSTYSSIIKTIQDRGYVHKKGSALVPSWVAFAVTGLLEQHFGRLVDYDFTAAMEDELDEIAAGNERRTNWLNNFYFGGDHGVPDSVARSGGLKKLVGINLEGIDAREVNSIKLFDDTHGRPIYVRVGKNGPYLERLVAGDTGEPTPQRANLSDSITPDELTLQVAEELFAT
Test: X-ray crystallography; no metal at active site; 2.42 A
Settings: protein: recombinant; tags: His6-Mocr removed by TEV; N-terminal SNA remains; single strand

TTCCGCTTGAC (ssDNA) [MTS2-11]
binding result: binds
